Results: patent publication US10053447B2, “Fluorescent compounds” (Pierce Biotechnology, Inc, priority 2010, dated 2018)

How the values were obtained:
[1] = Storage stability at 50° C. under argon; type: physicochemical
Protocol: The inventive compounds were evaluated for stability. All compounds were packed under argon in plastic vials. The vials sere sealed with a drying pad in an aluminium coated pouch, and then stored at 50° C. for seven days. The results of the stability study for selected compounds are shown below:
Purity was determined based on ester activity.
The inventive compounds were evaluated for stability compared to commercial dyes. All compounds were packed under argon as 1 mg portions in plastic vials. The vials sere sealed with a drying pad in an aluminium coated pouch, and then stored at 50° C. for 14 days. The results of the stability study for selected compounds are shown below:
The inventive compound 755 Compound 1 (isomer 1)-NHS was evaluated for stability. The compound was packed under argon in plastic vials. The vials sere sealed with a drying pad in an aluminium coated pouch, and then stored at 50° C. for 14 days. Purity was determined by HPLC before and after storage.

[2] = biological target: streptavidin (SA) (Streptomyces avidinii, UniProt P22629); assay: Labeling efficiency (degree of labeling, mole dye to mole protein ratio) of streptavidin; settings: for Compound/Protein SA in PBS purified by PDRR / Compound/Protein SA in PBS purified by gel filtration: PBS pH 7.2; for Compound/Protein SA in PBS purified by PDRR / Compound/Protein SA in PBS purified by gel filtration / Compound/Protein SA in borate purified by gel PDRR / Compound/Protein SA in borate purified by gel filtration: molar excess given in the label; for Compound/Protein SA in borate purified by gel PDRR / Compound/Protein SA in borate purified by gel filtration: borate buffer pH 8.5
Sequence of streptavidin (SA) (P22629 25-183, species assumed): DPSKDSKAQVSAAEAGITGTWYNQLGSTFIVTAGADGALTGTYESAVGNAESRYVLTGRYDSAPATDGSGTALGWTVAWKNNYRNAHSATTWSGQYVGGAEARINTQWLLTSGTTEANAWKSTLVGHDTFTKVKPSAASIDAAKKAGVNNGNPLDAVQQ
Protocol: Inventive and commercial compounds, each as the NHS ester, were conjugated to goat anti-mouse (GAM), goat anti-rabbit (GAR) antibodies, and streptavidin (SA). GAM, GAR, and SA, at 10 mg/ml in phosphate buffered saline (PBS), were dialyzed against 50 mM borate buffer, pH 8.5. The compounds were reconstituted in dimethylformamide (DMF) at 10 mg/ml and combined at 2×, 4×, 5×, 7.5×, or 10× molar excess with GAM, GAR, or SA for 2 h at room temperature to label the antibodies or SA.
The labeled compounds, also termed dyes or labels, were subjected to PDDR to remove the unlabeled (free) compound; 100 μl of the packed resin was used per mg of protein purified. The purified antibody-labeled dyes were then diluted 1:50 in PBS and scanned for absorbance from 700 nm to 230 nm to determine the protein concentration, and to determine the mole dye to mole protein ratio. Each conjugate was diluted 1:10 in 50% glycerol and heated in the presence of 10 mM dithiothreitol (DTT) for 5 min at 95° C., then separated by electrophoresis on polyacrylamide gels in the presence of sodium dodecyl sulfate (SDS-PAGE). The gels were scanned using the Typhoon 9400 Imager to verify removal of the unconjugated compound. Labeling efficiency was compared, with results showing degree of labeling below.
Compounds 1, 2, and 3, each as the NHS ester, and DyLight 649-NHS were conjugated to goat anti-mouse (GAM) and goat anti-rabbit (GAR) antibodies. GAM and GAR, at a concentration of 10 mg/ml in phosphate buffered saline (PBS), were dialyzed against 50 mM borate buffer, pH 8.5. The compounds were reconstituted in dimethylformamide (DMF) at 10 mg/ml. To label the antibodies, the compounds were added at 2.5× molar excess and 5× molar excess for 2 h at room temperature. Streptavidin (SA) was reconstituted in PBS buffer, pH 7.2, and 50 mM borate buffer, pH 8.5, and labeled with 2.5× molar excess and 4× molar excess of the compound.
The antibody-labeled compounds, also termed dyes or labels, were subjected to gel filtration chromatography (15 cm×0.8 cm columns) or to the PDDR to remove the unlabeled (free) compound; 100 μl of the packed resin was used per mg of protein purified. The purified antibody-labeled dyes were then diluted 1:100 in PBS and scanned for absorbance from 700 nm to 230 nm to determine the protein concentration, and to determine the mole dye to mole protein ratio. Each conjugate was diluted 1:10 in 50% glycerol and heated in the presence of 10 mM dithiothreitol (DTT) for 5 min at 95° C., then separated by electrophoresis on polyacrylamide gels in the presence of sodium dodecyl sulfate (SDS-PAGE). The gels were scanned using the Typhoon 9400 Imager to verify removal of the unconjugated compound. Labeling efficiency was compared using labeling of the compounds to GAM antibody at a 2.5× molar excess of compound, with results shown below.
Labeling efficiency was also compared using labeling of the dyes to streptavidin (SA) at either a 2.5 fold or a 4 fold molar excess of the dye, with SA in PBS, pH 7.2, and borate buffer, pH 8.5.
650 Compound 1 (isomer 2)-TFP, 650 Compound 1 (isomer 1)-TFP, 650 Compound 1 (isomer 2)-TFP, 650 Compound 1-NHS, and DyLight 649-NHS were conjugated to GAM, GAR, and SA. GAM and GAR, at a concentration of 10 mg/ml in phosphate buffered saline (PBS), were dialyzed against 50 mM borate buffer, pH 8.5. The compounds were reconstituted in dimethylformamide (DMF) at 10 mg/ml and used to label antibodies at 5× molar excess of compound for two hours at room temperature to label the antibodies. SA was reconstituted in 50 mM borate buffer, pH 8.5, and combined with 4× molar excess to label the SA.
The antibody-conjugated and SA-conjugated compounds, also termed dyes or labels, were subjected to the PDDR to remove the unlabeled (free) compound. The purified antibodies and SA were then diluted 1:25 in PBS and scanned for absorbance from 700 nm to 230 nm to determine the protein concentration, and to determine the mole dye to mole protein ratio. […]

[3] = test system: U2OS cells; A550 cells; assay: Immunofluorescence cell based assays, summary statements; design: species or system human; settings: GAM and GAR conjugates
Protocol: The inventive compounds and commercial dye were evaluated for immunofluorescence in cell based assays using the following protocol. Plates containing U2OS cells (human osteosarcoma cell line) were fixed in 4% paraformaldehyde in PBS/0.1% Triton X-100 for 15 min at room temperature. The cells were then permeabilized with 2% BSA in PBS/0.1% Triton X-100 for 30 min at room temperature. Diluted primary antibodies in PBS/0.1% Triton X-100 were added to the plates and incubated overnight at 4° C. The plates were washed 3×100 μl with PBS. Based on the calculated protein concentrations, the conjugates were diluted to 4 μg/ml (1:250 from 1 mg/ml stock) in PBS/0.1% Triton X-100 and added to the plates (50 μl/well) and incubated 1 h in the dark at room temperature. The plates were washed 3×100 μl with PBS. One hundred μl of 2 μg/ml Hoechst dye in PBS was added per well. The plates were then scanned on an ArrayScan® Plate Reader for imaging and quantitation.
The inventive compounds and commercial dyes were evaluated for immunofluorescence in cell based assays using the following protocol. Plates containing A550 cells (adenocarcinoma human alveolar basal epithelial cells, P5, Sep. 23, 2010) and stored at −80° C. were placed at 50° C. for 30 min. The storage buffer (PBS) was removed and then the cells were permeabilized for 15 min (100 μl/well) with 0.1% Triton-X100 in 1×PBS buffer. The plates were blocked for 30 min in 2% BSA in 1×PBS-0.1% Triton-X100 and then incubated with primary antibodies diluted in 2% BSA in 1×PBS, 0.1% Trion-X100, overnight at 4° C. […] The remaining wells were incubated in blocking buffer only (no primary antibody). After overnight incubation, the antibody solution was removed from the wells, and the plates were washed with PBS-Tween (2×100 μl/well). The labeled secondary antibody conjugates, diluted to 4 μg/ml in PBS were added to corresponding wells and incubated for 1 h at room temperature (about 20° C. to about 22° C.). The plates were washed 3×100 μl/well with PBS and Hoechst stain diluted 1 μg/ml in PBS were added to each well (100 μl/well) of each plate. The plates were then scanned on the Thermo Scientific ArrayScan® HCS Reader for imaging and quantitation.

[4] = Spectral properties of the dyes compared with commercially available dyes; type: physicochemical; settings: reactive ester form of the dye
[5] = unit size 1 mg, 50° C. for seven days, purity based on ester activity
[6] = amount 1 mg, 50° C. for 14 days (650 series)

Compound	Purity at day 1 [1, 5] [%]	Purity at day 7 [1, 5] [%]	Compound/Protein SA in PBS purified by PDRR [2]	Compound/Protein SA in PBS purified by gel filtration [2]	Compound/Protein SA in borate purified by gel PDRR [2]	Compound/Protein SA in borate purified by gel filtration [2]	also measured
COCCN1/C(=C/C=C/C2=[N+](CCCCCC(=O)Oc3c(F)c(F)cc(F)c3F)c3ccc(S(=O)(=O)[O-])cc3C2(C)CCCS(=O)(=O)O)C(C)(CCCS(=O)(=O)O)c2cc(S(=O)(=O)O)ccc21 (single isomer, unassigned) [550 Compound 1 (isomer 1)-TFP]	97	96					
COCCN1/C(=C/C=C/C2=[N+](CCCCCC(=O)NCCN3C(=O)C=CC3=O)c3ccc(S(=O)(=O)[O-])cc3C2(C)CCCS(=O)(=O)O)C(C)(CCCS(=O)(=O)O)c2cc(S(=O)(=O)O)ccc21 (single isomer, unassigned) [550 Compound 1(isomer 1)-maleimide]	99	97					
COCCN1/C(=C/C=C/C2=[N+](CCCCCC(=O)NCCN3C(=O)C=CC3=O)c3ccc(S(=O)(=O)[O-])cc3C2(C)CCCS(=O)(=O)O)C(C)(CCCS(=O)(=O)O)c2cc(S(=O)(=O)O)ccc21 (single isomer, unassigned) [550 Compound 1(isomer 2)-maleimide]	98	97					
COCCN1/C(=C/C=C/C=C/C2=[N+](CCCCCC(=O)Oc3c(F)c(F)cc(F)c3F)c3ccc(S(=O)(=O)[O-])cc3C2(C)CCCS(=O)(=O)O)C(C)(CCCS(=O)(=O)O)c2cc(S(=O)(=O)O)ccc21 (single isomer, unassigned) [650 Compound 1 (isomer 2)-TFP]							SA (4X) Average (mole dye to mole protein ratio) ([2]; TFP or NHS ester, 4X molar excess, borate buffer pH 8.5, PDRR): 2.42
COCCN1/C(=C/C=C/C2=[N+](CCCCCC(=O)O)c3ccc(S(=O)(=O)[O-])cc3C2(C)CCCS(=O)(=O)O)C(C)(CCCS(=O)(=O)O)c2cc(S(=O)(=O)O)ccc21 (stereo not shown) [550 Compound 1, 2-{(E)-3-[1-(5-carboxypentyl)-3-methyl-5-sulfo-3-(3-sulfopropyl)-1,3-dihydro-indol-(2E)-ylidene]-propenyl}-1-(2-methoxy-ethyl)-3-methyl-5-sulfo-3-(3-sulfo-propyl)-3H-indolium]							Immunofluorescence performance of conjugates compared with commercial DyLight dye [3]: at least similar performance to DyLight 549 conjugates (GAM, GAR), and in some cases superior performance
COCCN1/C(=C/C=C/C=C/C2=[N+](CCCCCC(=O)Oc3c(F)c(F)cc(F)c3F)c3ccc(S(=O)(=O)[O-])cc3C2(C)CCCS(=O)(=O)O)C(C)(CCCS(=O)(=O)O)c2cc(S(=O)(=O)O)ccc21 (stereo not shown) [650 Compound 1-TFP]							Purity at day 1 [1, 6]: 98%; Purity at day 14 [1, 6]: 97%; Emission (Em) [4]: 672 nm; Excitation (Ex) [4]: 654 nm; ε [4]: 250,000 M−1cm−1
Alexa 647-SA-(2.5X): Alexa 647 conjugated to streptavidin (SA) [reference compound]			3.5	3.9	2.4	2.6	Compound/Protein SA in borate purified by gel PDRR ([2]; listed as Alexa647-SA-4X): 3.4; Compound/Protein SA in borate purified by gel filtration ([2]; listed as Alexa647-SA-4X): 3.9
Cy5-SA (2.5X): Cy5 conjugated to streptavidin (SA) [reference compound]			3.8	4.2	2.0	2.3	Compound/Protein SA in borate purified by gel PDRR ([2]; listed as Cy5-SA-4X): 3.3; Compound/Protein SA in borate purified by gel filtration ([2]; listed as Cy5-SA-4X): 3.8
DyLight 649-SA (2.5X): DyLight 649 conjugated to streptavidin (SA); suffix gives molar excess of dye [reference compound]			2.6	3.5	2.2	2.3	Compound/Protein SA in borate purified by gel PDRR ([2]; listed as DyLight 649-SA-4X): 2.9; Compound/Protein SA in borate purified by gel filtration ([2]; listed as DyLight 649-SA-4X): 3.5
